In article PMC6548133 (The Journal of Cell Biology, 2019):

B1: talin1 F1(ΔL), residues 84–196 Δ141–170 (F1 Δloop) (domain or fragment)
chain: KQRPLKIRMLDGTVKTIMVDDSKTVTDMLMTICARIGITNHDEYSLVRELMEEKKDELNWLDHGRTLREQGVEEHETLLLRRK
B2: human Rap1 isoform Rap1b (residues 1–167) (natural protein)
chain: MREYKLVVLGSGGVGKSALTVQFVQGIFVEKYDPTIEDSYRKQVEVDAQQCMLEILDTAGTEQFTAMRDLYMKNGQGFALVYSITAQSTFNDLQDLREQILRVKDTDDVPMILVGNKCDLEDERVVGKEQGQNLARQWNNCAFLESSAKSKINVNEIFYDLVRQINR

Legend:
[1] = molecular target: B2; experiment: NMR titration
[2] = molecular target: murine talin1 head domain, residues 1–400 (THD) (murine, UniProt P26039 1-400); experiment: NMR titration
Sequence of murine talin1 head domain, residues 1–400 (THD) (P26039 1-400): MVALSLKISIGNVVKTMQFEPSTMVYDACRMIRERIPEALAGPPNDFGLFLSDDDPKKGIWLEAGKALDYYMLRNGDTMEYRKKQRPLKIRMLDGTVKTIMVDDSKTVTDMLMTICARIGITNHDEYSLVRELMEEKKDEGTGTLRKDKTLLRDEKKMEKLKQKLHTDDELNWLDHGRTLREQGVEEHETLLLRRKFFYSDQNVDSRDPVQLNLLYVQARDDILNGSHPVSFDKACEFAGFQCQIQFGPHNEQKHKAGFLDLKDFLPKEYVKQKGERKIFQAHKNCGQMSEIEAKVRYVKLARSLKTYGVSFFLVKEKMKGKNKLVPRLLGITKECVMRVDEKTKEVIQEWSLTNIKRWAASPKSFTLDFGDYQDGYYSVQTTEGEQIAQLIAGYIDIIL

Binder	binding result [1]	binding result [2]
B1	binds	–
B2	–	binds
